Data as given in paper PMC10202398, “Nitrite reductase activity in F420-dependent sulphite reductase (Fsr) from Methanocaldococcus jannaschii” (Access Microbiology, 2023).

T1: MjFsrI (F420-dependent sulphite reductase, Fsr) (Methanocaldococcus jannaschii, UniProt Q58280)
T1 construct: native, purified from sulphite-grown Mj cells; untagged
T1 sequence (Q58280 1-620): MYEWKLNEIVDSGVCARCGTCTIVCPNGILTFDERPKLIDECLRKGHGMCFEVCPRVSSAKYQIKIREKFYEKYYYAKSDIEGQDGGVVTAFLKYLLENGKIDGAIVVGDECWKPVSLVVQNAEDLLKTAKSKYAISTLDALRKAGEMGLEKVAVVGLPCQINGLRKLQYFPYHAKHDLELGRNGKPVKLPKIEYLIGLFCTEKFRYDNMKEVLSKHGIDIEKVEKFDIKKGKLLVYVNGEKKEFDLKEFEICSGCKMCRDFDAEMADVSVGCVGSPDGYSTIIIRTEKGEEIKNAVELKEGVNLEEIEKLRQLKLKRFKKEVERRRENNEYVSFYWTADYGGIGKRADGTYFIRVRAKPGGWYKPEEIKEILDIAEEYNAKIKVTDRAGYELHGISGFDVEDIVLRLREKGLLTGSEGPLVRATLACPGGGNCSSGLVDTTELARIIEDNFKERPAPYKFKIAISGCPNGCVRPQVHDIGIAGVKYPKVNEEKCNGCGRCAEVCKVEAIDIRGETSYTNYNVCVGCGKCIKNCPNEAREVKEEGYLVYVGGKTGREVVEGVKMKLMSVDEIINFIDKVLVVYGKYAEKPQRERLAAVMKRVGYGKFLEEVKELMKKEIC


Legend:
[1] = target: T1, MjFsrI (F420-dependent sulphite reductase, Fsr); assay: non-degradative extraction from purified protein, reversed-phase HPLC; format: binding; conditions: native co-purified flavin, 25 mM potassium phosphate pH 7
purified protein [2] = substrate: NO; assay: purified protein; format: biochemical, Methanocaldococcus jannaschii; conditions: 40 µM F420H2, 25-600 µM hydroxylamine, 100 mM potassium phosphate pH 7
purified protein [3] = substrate: O=NO; assay: purified protein; format: biochemical, Methanocaldococcus jannaschii; conditions: 40 µM F420H2, 5-150 µM nitrite, 100 mM potassium phosphate pH 7

Molecule | non-degradative extraction from purified protein, reversed-phase HPLC [1] | Km (purified protein [2]) [µM] | Km (purified protein [3]) [µM]
Cc1cc2nc3c(=O)[nH]c(=O)nc-3n(C[C@H](O)[C@H](O)[C@H](O)COP(=O)(O)OP(=O)(O)OC[C@H]3O[C@@H](n4cnc5c(N)ncnc54)[C@H](O)[C@@H]3O)c2cc1C [FAD] | Reversed-phase HPLC identified the flavin extracted from MjFsrI as FAD | – | –
MjFsrI (F420-dependent sulphite reductase, Fsr) (Methanocaldococcus jannaschii DSM 2661) (protein, native, purified from sulphite-grown Mj cells; untagged) MYEWKLNEIVDSGVCARCGTCTIVCPNGILTFDERPKLIDECLRKGHGMCFEVCPRVSSAKYQIKIREKFYEKYYYAKSDIEGQDGGVVTAFLKYLLENGKIDGAIVVGDECWKPVSLVVQNAEDLLKTAKSKYAISTLDALRKAGEMGLEKVAVVGLPCQINGLRKLQYFPYHAKHDLELGRNGKPVKLPKIEYLIGLFCTEKFRYDNMKEVLSKHGIDIEKVEKFDIKKGKLLVYVNGEKKEFDLKEFEICSGCKMCRDFDAEMADVSVGCVGSPDGYSTIIIRTEKGEEIKNAVELKEGVNLEEIEKLRQLKLKRFKKEVERRRENNEYVSFYWTADYGGIGKRADGTYFIRVRAKPGGWYKPEEIKEILDIAEEYNAKIKVTDRAGYELHGISGFDVEDIVLRLREKGLLTGSEGPLVRATLACPGGGNCSSGLVDTTELARIIEDNFKERPAPYKFKIAISGCPNGCVRPQVHDIGIAGVKYPKVNEEKCNGCGRCAEVCKVEAIDIRGETSYTNYNVCVGCGKCIKNCPNEAREVKEEGYLVYVGGKTGREVVEGVKMKLMSVDEIINFIDKVLVVYGKYAEKPQRERLAAVMKRVGYGKFLEEVKELMKKEIC | – | 112.4 ± 14.4 | 8.9 ± 0.9
